Experiment [1] has as its target MukF FN2 (E. coli). Put plainly: SEC-MALS; Superose 6 10/300 GL or Superose 12 10/300; 50 mM HEPES pH 7.5, 100 mM NaCl, 1 mM DTT, 1 mM EDTA; 20 °C; mixtures at stated monomer:dimer molar ratios; some runs with 1 mM ATP. (Size exclusion chromatography separates by hydrodynamic size, large species first.)
Experiment [2] addresses fluorescently labelled FN2, FN10, FN3 and FC2 (E. coli). The experiment can be described thus: fluorescence correlation spectroscopy (FCS) + fluorescence polarisation; range of Kds told for the four Cy5-labelled MukF fragments together (FN2, FN10 by FCS; FN3, FC2 by FPA); MukB titrated. On the technique in general: In fluorescence polarisation assays a small probe gives low polarisation when free and higher when bound to something large.

Experiment [3] addresses MukF FN2 (E. coli).
The target in a further experiment is MukF FC2 (E. coli). The settings on record: scale: % of the maximal ATPase obtained with MukF.

What is called stoichiometry N is the number of molecules, sites or subunits per partner or assembly. Usually Kd stands for the concentration at which binding is half-saturated.

B1: MukF FN2 (domain or fragment)
chain: MSEFSQTVPELVAWARKNDFSISLPVDRLSFLLAVATLNGERLDGEMSEGELVDAFRHVSDAFEQTSETIGVRANNAINDMVRQRLLNRFTSEQAEGNAIYRLTPLGIGITDYYIRQREFSTLRLSMQLSIVAGELKRAADAAEEGGDEFHWHRNVYAPLKYSVAEIFDSIDLTQRLMDEQQQQVKDDIAQLLNKDWRAAISSCELLLSETSGTLRELQDTLEAAGDKLQANLLRIQDATMTHDDLHFVDRLVFDLQSKLDRIISWGQQSIDLWIGYDRHVHKFIRT
modifications: not checked
Regarding B1, the stoichiometry N with MukF FN2 (E. coli) [1] came out at 2.

B2: MukB (natural protein)
chain: MIERGKFRSLTLINWNGFFARTFDLDELVTTLSGGNGAGKSTTMAAFVTALIPDLTLLHFRNTTEAGATSGSRDKGLHGKLKAGVCYSMLDTINSRHQRVVVGVRLQQVAGRDRKVDIKPFAIQGLPMSVQPTQLVTETLNERQARVLPLNELKDKLEAMEGVQFKQFNSITDYHSLMFDLGIIARRLRSASDRSKFYRLIEASLYGGISSAITRSLRDYLLPENSGVRKAFQDMEAALRENRMTLEAIRVTQSDRDLFKHLISEATNYVAADYMRHANERRVHLDKALEFRRELHTSRQQLAAEQYKHVDMARELAEHNGAEGDLEADYQAASDHLNLVQTALRQQEKIERYEADLDELQIRLEEQNEVVAEAIERQQENEARAEAAELEVDELKSQLADYQQALDVQQTRAIQYNQAIAALNRAKELCHLPDLTADCAAEWLETFQAKELEATEKMLSLEQKMSMAQTAHSQFEQAYQLVVAINGPLARNEAWDVARELLREGVDQRHLAEQVQPLRMRLSELEQRLREQQEAERLLADFCKRQGKNFDIDELEALHQELEARIASLSDSVSNAREERMALRQEQEQLQSRIQSLMQRAPVWLAAQNSLNQLSEQCGEEFTSSQDVTEYLQQLLEREREAIVERDEVGARKNAVDEEIERLSQPGGSEDQRLNALAERFGGVLLSEIYDDVSLEDAPYFSALYGPSRHAIVVPDLSQVTEHLEGLTDCPEDLYLIEGDPQSFDDSVFSVDELEKAVVVKIADRQWRYSRFPEVPLFGRAARESRIESLHAEREVLSERFATLSFDVQKTQRLHQAFSRFIGSHLAVAFESDPEAEIRQLNSRRVELERALSNHENDNQQQRIQFEQAKEGVTALNRILPRLNLLADDSLADRVDEIRERLDEAQEAARFVQQFGNQLAKLEPIVSVLQSDPEQFEQLKEDYAYSQQMQRDARQQAFALTEVVQRRAHFSYSDSAEMLSGNSDLNEKLRERLEQAEAERTRAREALRGHAAQLSQYNQVLASLKSSYDTKKELLNDLQRELQDIGVRADSGAEERARIRRDELHAQLSNNRSRRNQLEKALTFCEAEMDNLTRKLRKLERDYFEMREQVVTAKAGWCAVMRMVKDNGVERRLHRRELAYLSADDLRSMSDKALGALRLAVADNEHLRDVLRMSEDPKRPERKIQFFVAVYQHLRERIRQDIIRTDDPVEAIEQMEIELSRLTEELTSREQKLAISSRSVANIIRKTIQREQNRIRMLNQGLQNVSFGQVNSVRLNVNVRETHAMLLDVLSEQHEQHQDLFNSNRLTFSEALAKLYQRLNPQIDMGQRTPQTIGEELLDYRNYLEMEVEVNRGSDGWLRAESGALSTGEAIGTGMSILVMVVQSWEDESRRLRGKDISPCRLLFLDEAARLDARSIATLFELCERLQMQLIIAAPENISPEKGTTYKLVRKVFQNTEHVHVVGLRGFAPQLPETLPGTDEAPSQAS
For the molecule B2, in experiment [2], the Kd was in the range of 9 to 26 nM. Besides, in the experiment with MukF FN2 (E. coli) [3], the MukB ATPase (steady state, phosphate release) with saturating FN2 at a 2.5-fold molar excess, against MukF (% of maximum ATPase) came out at 33. For the same molecule, the MukB ATPase (steady state, phosphate release) with saturating FC2 at a 2.5-fold molar excess, against MukF with MukF FC2 (E. coli) was 60.
